Test results: PMC8224240 (Molecular cell, 2020)

Biological target: T1, human Smc6 with Strep-tag II (StreptagII-Smc6) (human, UniProt Q96SB8 1-1091)
T1 sequence (looked up): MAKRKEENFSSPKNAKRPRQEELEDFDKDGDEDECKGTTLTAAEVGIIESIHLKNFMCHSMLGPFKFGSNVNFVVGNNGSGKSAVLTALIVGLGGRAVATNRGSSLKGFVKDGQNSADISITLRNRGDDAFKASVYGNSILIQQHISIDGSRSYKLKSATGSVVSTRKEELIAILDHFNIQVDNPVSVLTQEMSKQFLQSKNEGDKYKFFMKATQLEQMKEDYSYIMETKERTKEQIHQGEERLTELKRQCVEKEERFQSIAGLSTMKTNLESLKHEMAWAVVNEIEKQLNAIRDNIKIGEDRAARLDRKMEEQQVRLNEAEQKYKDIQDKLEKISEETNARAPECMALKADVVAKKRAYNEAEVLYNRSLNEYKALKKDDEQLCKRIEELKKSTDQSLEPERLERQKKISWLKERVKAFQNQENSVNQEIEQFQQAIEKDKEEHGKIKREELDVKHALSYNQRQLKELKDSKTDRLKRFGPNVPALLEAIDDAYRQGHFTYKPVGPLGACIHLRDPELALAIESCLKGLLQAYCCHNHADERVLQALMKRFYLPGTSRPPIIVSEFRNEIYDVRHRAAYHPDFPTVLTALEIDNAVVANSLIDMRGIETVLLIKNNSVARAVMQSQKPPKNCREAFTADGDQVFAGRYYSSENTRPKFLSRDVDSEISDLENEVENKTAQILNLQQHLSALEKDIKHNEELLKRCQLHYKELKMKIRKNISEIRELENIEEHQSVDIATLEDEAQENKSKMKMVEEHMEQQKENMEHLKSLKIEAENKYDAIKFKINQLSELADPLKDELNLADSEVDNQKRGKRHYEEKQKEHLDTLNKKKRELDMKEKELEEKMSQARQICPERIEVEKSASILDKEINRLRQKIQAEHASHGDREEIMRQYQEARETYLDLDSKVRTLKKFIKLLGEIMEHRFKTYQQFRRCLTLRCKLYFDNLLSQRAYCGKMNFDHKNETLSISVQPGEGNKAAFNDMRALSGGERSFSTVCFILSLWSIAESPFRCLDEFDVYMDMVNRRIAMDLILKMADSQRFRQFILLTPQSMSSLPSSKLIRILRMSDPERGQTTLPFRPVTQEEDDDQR
Assay: tandem affinity co-purification

stoichiometry N: 1
B1: human Smc5 with poly-histidine tag (His-Smc5), subunit of the Smc5/6 dimer (natural protein, UniProt Q8IY18 1-1101, looked up)
chain: MATPSKKTSTPSPQPSKRALPRDPSSEVPSKRKNSAPQLPLLQSSGPFVEGSIVRISMENFLTYDICEVSPGPHLNMIVGANGTGKSSIVCAICLGLAGKPAFMGRADKVGFFVKRGCSRGMVEIELFRASGNLVITREIDVAKNQSFWFINKKSTTQKIVEEKVAALNIQVGNLCQFLPQDKVGEFAKLSKIELLEATEKSIGPPEMHKYHCELKNLREKEKQLETSCKEKTEYLQKMVQRNERYKQDVERFYERKRHLDLIEMLEAKRPWVEYENVRQEYEEVKLVRDRVKEEVRKLKEGQIPVTCRIEEMENERHNLEARIKEKATDIKEASQKCKQKQDVIERKDKHIEELQQALIVKQNEELDRQRRIGNTRKMIEDLQNELKTTENCENLQPQIDAITNDLRRIQDEKALCEGEIIDKRRERETLEKEKKSVDDHIVRFDNLMNQKEDKLRQRFRDTYDAVLWLRNNRDKFKQRVCEPIMLTINMKDNKNAKYIENHIPSNDLRAFVFESQEDMEVFLKEVRDNKKLRVNAVIAPKSSYADKAPSRSLNELKQYGFFSYLRELFDAPDPVMSYLCCQYHIHEVPVGTEKTRERIERVIQETRLKQIYTAEEKYVVKTSFYSNKVISSNTSLKVAQFLTVTVDLEQRRHLEEQLKEIHRKLQAVDSGLIALRETSKHLEHKDNELRQKKKELLERKTKKRQLEQKISSKLGSLKLMEQDTCNLEEEERKASTKIKEINVQKAKLVTELTNLIKICTSLHIQKVDLILQNTTVISEKNKLESDYMAASSQLRLTEQHFIELDENRQRLLQKCKELMKRARQVCNLGAEQTLPQEYQTQVPTIPNGHNSSLPMVFQDLPNTLDEIDALLTEERSRASCFTGLNPTIVQEYTKREEEIEQLTEELKGKKVELDQYRENISQVKERWLNPLKELVEKINEKFSNFFSSMQCAGEVDLHTENEEDYDKYGIRIRVKFRSSTQLHELTPHHQSGGERSVSTMLYLMALQELNRCPFRVVDEINQGMDPINERRVFEMVVNTACKENTSQYFFITPKLLQNLPYSEKMTVLFVYNGPHMLEPNTWNLKAFQRRRRRITFTQPS
